Our source for the deactivation kinetics, two-electrode voltage clamp in Xenopus oocytes values is US20090047703A1.

For the test, the target named is HERG-1b (human) (UniProt Q12809). Kind of test: cell-based or functional assay.

As to HERG-1a N-Terminal Domain fused to eCFP, the deactivation kinetics, two-electrode voltage clamp in Xenopus oocytes amounted to 10 fold.
